Measured values: PMC11424477 (2024)

Target: spike (trimeric, Wuhan) (SARS-CoV-2, UniProt P0DTC2)

B1: fibrin (protein)
chain 1: ADSGEGDFLAEGGGVR
chain 2: QGVNDNEEGFFSAR
chain 3: YVATRDNCCILDERFGSYCPTTCGIADFLSTYQTKVDKDLQSLEDILHQVENKTSEVKQLIKAIQLTYNPDESSKPNMIDAATLKSRKMLEEIMKYEASILTHDSSIRYLQEIYNSNNQKIVNLKEKVAQLEAQCQEPCKDTVQIHDITGKDCQDIANKGAKQSGLYFIKPLKANQQFLVYCEIDGSGNGWTVFQKRLDGSVDFKKNWIQYKEGFGHLSPTGTTEFWLGNEKIHLISTQSAIPYALRVELEDWNGRTSTADYAMFKVGPEADKYRLTYAYFAGGDAGDAFDGFDFGDDPSDKFFTSHNGMQFSTWDNDNDKFEGNCAEQDGSGWWMNKCHAGHLNGVYYQGGTYSKASTPNGYDNGIIWATWKTRWYSMKKTTMKIIPFNRLTIGEGQQHHLGGAKQVRPEHPAETEYDSLYPEDDL
In the case of B1, the Kd is reported as 390 nM.
